Read-outs that look alike come from different tables or passages of the source. No end group written: not given here.
Legend:
[1] = biological target: T1, MBP (Escherichia coli, UniProt P0AEX9); assay: Surface Plasmon Resonance, immobilized MBP, peptides as analytes; assay type: binding; details: for SPR signal variations in the explored concentration range: dose response assay
T1 construct: made in house; host or cells: E. coli BL21(DE3)
Experimental: The interactions between the protein and computationally optimized peptides were measured using the BIAcore 3000 (GE Healthcare Milano, Italy). […] Residual reactive groups were deactivated by treatment with 1 M ethanolamine hydrochloride, pH 8.5. The reference channel was activated with EDC/NHS and deactivated with ethanolamine. The binding assays were carried out at 20 μL /min at 25°C, with 4.5 min contact-time. Peptides were diluted in the HBS running buffer (10 mM Hepes, 150 mM NaCl, 3 mM EDTA, pH 7.4). Analyte injections were performed at the indicated concentrations. The sensor surface was regenerated by using 1–3 washes of 10mM NaOH for 1 minute. The association phase (kon) was followed for 250s, whereas the dissociation phase (koff) was followed for 300 s. The instrument BIAevaluation analysis package (version 4.1, GE Healthcare, Milano, Italy) was used to subtract the signal of the reference channel. Conversely, an affinity steady state model was applied to fit the RUmax data versus peptides concentrations and fitting was performed with GraphPad Prism v4.00 using the one-site binding equation [53, 54].

[2] = test system: OPPA; details: KAK+OPPA; cited from earlier work
[3] = biological target: T1, MBP; details: cited from earlier work
[4] = immobilized MBP on CM5 chip, 25°C, HBS pH 7.4

Substance | KD (SPR determined) [1, 4] | other results
GLPKPGGN [MBP-5, computationally designed octapeptide] | CBE | –
KAK | – | experimentally determined binding energy [2]: -9.8 kcal/mol
PQYPPHDN [MBP-4, computationally designed octapeptide] | CBE | –
WGTNGGTR [MBP-2, computationally designed octapeptide] | CBE | –
WHPRPVWE-NH2 [MBP-8] | – | Kd ([1]; immobilized MBP on CM5 chip, 25°C, HBS pH 7.4, read-out: KD (SPR determined)): 200 ± 5 µM
WSPNFWWR [MBP-7, computationally designed octapeptide] | CBE | –
YGDGYFRF [MBP-10, peptide along the minimization path of MBP-9] | No binding | SPR signal variations in the explored concentration range [1]: did not give valuable signal variations
YHDGYFRF [MBP-11, peptide along the minimization path of MBP-9] | No binding | SPR signal variations in the explored concentration range [1]: did not give valuable signal variations
maltotriose | – | experimental binding energy ([3]; compared with the closed configuration score): -9.3 kcal/mol; experimental binding energy ([3]; compared with the open configuration score): -8.4 kcal/mol

From publication PMC4529233, “In Silico Generation of Peptides by Replica Exchange Monte Carlo: Docking-Based Optimization of Maltose-Binding-Protein Ligands” (PLoS ONE, 2015)
